Our source for the Kd values is patent US20140080766.

The test system of this series is E6N2 (E6 Fn3-mouse IgG2a Fc-human PKR dsRBD fusion, homodimer) C121V,C135V (in dsRBD) (Homo sapiens). Put plainly: flow. Conditions: KD,app; E6N2 on Protein A beads; DMEM+10% FBS, 37 C, 1 h; pH presumably 7.4; avidity from bivalent dsRBD.

Substance “AllStars Negative Control siRNA (Qiagen)” registered a Kd of 3.5 nM.
